Results as given in US20230220021A1 (UNIVERSITY OF COPENHAGEN, published 2023).
[ ]: non-standard residue; d: D form.

Target: T1, (7× His)-PSD-95-PDZ2 wild type (UniProt P78352 160-246)
T1 construct: domain: PDZ2; recombinant from E. coli; also called PSD-95-PDZ2 WT; not shown: 7x His tag
Experiment: FP competition

T1 sequence (P78352 160-246): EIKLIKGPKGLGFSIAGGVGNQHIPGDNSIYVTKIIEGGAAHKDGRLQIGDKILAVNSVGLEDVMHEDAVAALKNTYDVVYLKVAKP

Ki [nM] | Relative Ki (Ki mut/Ki WT) | Binder
1360 | 0.91 | cyclo(THLETTFTGDGCPKTIRVTQ[dP]GQ) (SMILES CC[C@H](C)[C@@H]1NC(=O)[C@H]([C@@H](C)O)NC(=O)[C@H](CCCCN)NC(=O)[C@@H]2CCCN2C(=O)[C@H](CS)NC(=O)CNC(=O)[C@H](CC(=O)O)NC(=O)CNC(=O)[C@H]([C@@H](C)O)NC(=O)[C@H](Cc2ccccc2)NC(=O)[C@H]([C@@H](C)O)NC(=O)[C@H]([C@@H](C)O)NC(=O)[C@H](CCC(=O)O)NC(=O)[C@H](CC(C)C)NC(=O)[C@H](Cc2c[nH]cn2)NC(=O)[C@H]([C@@H](C)O)NC(=O)[C@H](CCC(N)=O)NC(=O)CNC(=O)[C@H]2CCCN2C(=O)[C@H](CCC(N)=O)NC(=O)[C@H]([C@@H](C)O)NC(=O)[C@H](C(C)C)NC(=O)[C@H](CCCNC(=N)N)NC1=O) [cyclic nNOS β-hairpin peptide T116C]
1590 | 1.06 | cyclo(THLETTFTGDGTPKTIRVRQ[dP]GQ) (SMILES CC[C@H](C)[C@@H]1NC(=O)[C@H]([C@@H](C)O)NC(=O)[C@H](CCCCN)NC(=O)[C@@H]2CCCN2C(=O)[C@H]([C@@H](C)O)NC(=O)CNC(=O)[C@H](CC(=O)O)NC(=O)CNC(=O)[C@H]([C@@H](C)O)NC(=O)[C@H](Cc2ccccc2)NC(=O)[C@H]([C@@H](C)O)NC(=O)[C@H]([C@@H](C)O)NC(=O)[C@H](CCC(=O)O)NC(=O)[C@H](CC(C)C)NC(=O)[C@H](Cc2c[nH]cn2)NC(=O)[C@H]([C@@H](C)O)NC(=O)[C@H](CCC(N)=O)NC(=O)CNC(=O)[C@H]2CCCN2C(=O)[C@H](CCC(N)=O)NC(=O)[C@H](CCCNC(=N)N)NC(=O)[C@H](C(C)C)NC(=O)[C@H](CCCNC(=N)N)NC1=O) [cyclic nNOS β-hairpin peptide T123R]
1340 | 0.89 | cyclo(THLETTFTGDGTPKTIRFTQ[dP]GQ) (SMILES CC[C@H](C)[C@@H]1NC(=O)[C@H]([C@@H](C)O)NC(=O)[C@H](CCCCN)NC(=O)[C@@H]2CCCN2C(=O)[C@H]([C@@H](C)O)NC(=O)CNC(=O)[C@H](CC(=O)O)NC(=O)CNC(=O)[C@H]([C@@H](C)O)NC(=O)[C@H](Cc2ccccc2)NC(=O)[C@H]([C@@H](C)O)NC(=O)[C@H]([C@@H](C)O)NC(=O)[C@H](CCC(=O)O)NC(=O)[C@H](CC(C)C)NC(=O)[C@H](Cc2c[nH]cn2)NC(=O)[C@H]([C@@H](C)O)NC(=O)[C@H](CCC(N)=O)NC(=O)CNC(=O)[C@H]2CCCN2C(=O)[C@H](CCC(N)=O)NC(=O)[C@H]([C@@H](C)O)NC(=O)[C@H](Cc2ccccc2)NC(=O)[C@H](CCCNC(=N)N)NC1=O) [cyclic nNOS β-hairpin peptide V122F]
7190 | 4.79 | cyclo(THLETTFTGDGTPKSIRVTQ[dP]GQ) (SMILES CC[C@H](C)[C@@H]1NC(=O)[C@H](CO)NC(=O)[C@H](CCCCN)NC(=O)[C@@H]2CCCN2C(=O)[C@H]([C@@H](C)O)NC(=O)CNC(=O)[C@H](CC(=O)O)NC(=O)CNC(=O)[C@H]([C@@H](C)O)NC(=O)[C@H](Cc2ccccc2)NC(=O)[C@H]([C@@H](C)O)NC(=O)[C@H]([C@@H](C)O)NC(=O)[C@H](CCC(=O)O)NC(=O)[C@H](CC(C)C)NC(=O)[C@H](Cc2c[nH]cn2)NC(=O)[C@H]([C@@H](C)O)NC(=O)[C@H](CCC(N)=O)NC(=O)CNC(=O)[C@H]2CCCN2C(=O)[C@H](CCC(N)=O)NC(=O)[C@H]([C@@H](C)O)NC(=O)[C@H](C(C)C)NC(=O)[C@H](CCCNC(=N)N)NC1=O) [cyclic nNOS β-hairpin peptide T119S]
510 | 0.34 | cyclo(THLETTFTGDGNPKTIRVTQ[dP]GQ) (SMILES CC[C@H](C)[C@@H]1NC(=O)[C@H]([C@@H](C)O)NC(=O)[C@H](CCCCN)NC(=O)[C@@H]2CCCN2C(=O)[C@H](CC(N)=O)NC(=O)CNC(=O)[C@H](CC(=O)O)NC(=O)CNC(=O)[C@H]([C@@H](C)O)NC(=O)[C@H](Cc2ccccc2)NC(=O)[C@H]([C@@H](C)O)NC(=O)[C@H]([C@@H](C)O)NC(=O)[C@H](CCC(=O)O)NC(=O)[C@H](CC(C)C)NC(=O)[C@H](Cc2c[nH]cn2)NC(=O)[C@H]([C@@H](C)O)NC(=O)[C@H](CCC(N)=O)NC(=O)CNC(=O)[C@H]2CCCN2C(=O)[C@H](CCC(N)=O)NC(=O)[C@H]([C@@H](C)O)NC(=O)[C@H](C(C)C)NC(=O)[C@H](CCCNC(=N)N)NC1=O) [cyclic nNOS β-hairpin peptide T116N]

The remaining lines, values behind:

Binder | Ki [nM] | Relative Ki (Ki mut/Ki WT)
cyclo(THLETTFTGDGTPKTIRVYQ[dP]GQ) (SMILES CC[C@H](C)[C@@H]1NC(=O)[C@H]([C@@H](C)O)NC(=O)[C@H](CCCCN)NC(=O)[C@@H]2CCCN2C(=O)[C@H]([C@@H](C)O)NC(=O)CNC(=O)[C@H](CC(=O)O)NC(=O)CNC(=O)[C@H]([C@@H](C)O)NC(=O)[C@H](Cc2ccccc2)NC(=O)[C@H]([C@@H](C)O)NC(=O)[C@H]([C@@H](C)O)NC(=O)[C@H](CCC(=O)O)NC(=O)[C@H](CC(C)C)NC(=O)[C@H](Cc2c[nH]cn2)NC(=O)[C@H]([C@@H](C)O)NC(=O)[C@H](CCC(N)=O)NC(=O)CNC(=O)[C@H]2CCCN2C(=O)[C@H](CCC(N)=O)NC(=O)[C@H](Cc2ccc(O)cc2)NC(=O)[C@H](C(C)C)NC(=O)[C@H](CCCNC(=N)N)NC1=O) [cyclic nNOS β-hairpin peptide T123Y] | 1870 | 1.25
cyclo(THLETTFTGDGTPKNIRVTQ[dP]GQ) (SMILES CC[C@H](C)[C@@H]1NC(=O)[C@H](CC(N)=O)NC(=O)[C@H](CCCCN)NC(=O)[C@@H]2CCCN2C(=O)[C@H]([C@@H](C)O)NC(=O)CNC(=O)[C@H](CC(=O)O)NC(=O)CNC(=O)[C@H]([C@@H](C)O)NC(=O)[C@H](Cc2ccccc2)NC(=O)[C@H]([C@@H](C)O)NC(=O)[C@H]([C@@H](C)O)NC(=O)[C@H](CCC(=O)O)NC(=O)[C@H](CC(C)C)NC(=O)[C@H](Cc2c[nH]cn2)NC(=O)[C@H]([C@@H](C)O)NC(=O)[C@H](CCC(N)=O)NC(=O)CNC(=O)[C@H]2CCCN2C(=O)[C@H](CCC(N)=O)NC(=O)[C@H]([C@@H](C)O)NC(=O)[C@H](C(C)C)NC(=O)[C@H](CCCNC(=N)N)NC1=O) [cyclic nNOS β-hairpin peptide T119N] | 18900 | 12.6
cyclo(THLETTFTGDGTPKTIRVFQ[dP]GQ) (SMILES CC[C@H](C)[C@@H]1NC(=O)[C@H]([C@@H](C)O)NC(=O)[C@H](CCCCN)NC(=O)[C@@H]2CCCN2C(=O)[C@H]([C@@H](C)O)NC(=O)CNC(=O)[C@H](CC(=O)O)NC(=O)CNC(=O)[C@H]([C@@H](C)O)NC(=O)[C@H](Cc2ccccc2)NC(=O)[C@H]([C@@H](C)O)NC(=O)[C@H]([C@@H](C)O)NC(=O)[C@H](CCC(=O)O)NC(=O)[C@H](CC(C)C)NC(=O)[C@H](Cc2c[nH]cn2)NC(=O)[C@H]([C@@H](C)O)NC(=O)[C@H](CCC(N)=O)NC(=O)CNC(=O)[C@H]2CCCN2C(=O)[C@H](CCC(N)=O)NC(=O)[C@H](Cc2ccccc2)NC(=O)[C@H](C(C)C)NC(=O)[C@H](CCCNC(=N)N)NC1=O) [cyclic nNOS β-hairpin peptide T123F] | 1580 | 1.05
cyclo(THLETTFTGDGPPKTIRVTQ[dP]GQ) (SMILES CC[C@H](C)[C@@H]1NC(=O)[C@H]([C@@H](C)O)NC(=O)[C@H](CCCCN)NC(=O)[C@@H]2CCCN2C(=O)[C@@H]2CCCN2C(=O)CNC(=O)[C@H](CC(=O)O)NC(=O)CNC(=O)[C@H]([C@@H](C)O)NC(=O)[C@H](Cc2ccccc2)NC(=O)[C@H]([C@@H](C)O)NC(=O)[C@H]([C@@H](C)O)NC(=O)[C@H](CCC(=O)O)NC(=O)[C@H](CC(C)C)NC(=O)[C@H](Cc2c[nH]cn2)NC(=O)[C@H]([C@@H](C)O)NC(=O)[C@H](CCC(N)=O)NC(=O)CNC(=O)[C@H]2CCCN2C(=O)[C@H](CCC(N)=O)NC(=O)[C@H]([C@@H](C)O)NC(=O)[C@H](C(C)C)NC(=O)[C@H](CCCNC(=N)N)NC1=O) [cyclic nNOS β-hairpin peptide T116P] | 1160 | 0.77
cyclo(THLETTFTGDGWPKTIRVTQ[dP]GQ) (SMILES CC[C@H](C)[C@@H]1NC(=O)[C@H]([C@@H](C)O)NC(=O)[C@H](CCCCN)NC(=O)[C@@H]2CCCN2C(=O)[C@H](Cc2c[nH]c3ccccc23)NC(=O)CNC(=O)[C@H](CC(=O)O)NC(=O)CNC(=O)[C@H]([C@@H](C)O)NC(=O)[C@H](Cc2ccccc2)NC(=O)[C@H]([C@@H](C)O)NC(=O)[C@H]([C@@H](C)O)NC(=O)[C@H](CCC(=O)O)NC(=O)[C@H](CC(C)C)NC(=O)[C@H](Cc2c[nH]cn2)NC(=O)[C@H]([C@@H](C)O)NC(=O)[C@H](CCC(N)=O)NC(=O)CNC(=O)[C@H]2CCCN2C(=O)[C@H](CCC(N)=O)NC(=O)[C@H]([C@@H](C)O)NC(=O)[C@H](C(C)C)NC(=O)[C@H](CCCNC(=N)N)NC1=O) [cyclic nNOS β-hairpin peptide T116W] | 1040 | 0.69
cyclo(THLETTFTGDGTPKTIRRTQ[dP]GQ) (SMILES CC[C@H](C)[C@@H]1NC(=O)[C@H]([C@@H](C)O)NC(=O)[C@H](CCCCN)NC(=O)[C@@H]2CCCN2C(=O)[C@H]([C@@H](C)O)NC(=O)CNC(=O)[C@H](CC(=O)O)NC(=O)CNC(=O)[C@H]([C@@H](C)O)NC(=O)[C@H](Cc2ccccc2)NC(=O)[C@H]([C@@H](C)O)NC(=O)[C@H]([C@@H](C)O)NC(=O)[C@H](CCC(=O)O)NC(=O)[C@H](CC(C)C)NC(=O)[C@H](Cc2c[nH]cn2)NC(=O)[C@H]([C@@H](C)O)NC(=O)[C@H](CCC(N)=O)NC(=O)CNC(=O)[C@H]2CCCN2C(=O)[C@H](CCC(N)=O)NC(=O)[C@H]([C@@H](C)O)NC(=O)[C@H](CCCNC(=N)N)NC(=O)[C@H](CCCNC(=N)N)NC1=O) [cyclic nNOS β-hairpin peptide V122R] | 1690 | 1.13
